Tests used:
[1] = molecular target: T1, Tie1 (Homo sapiens, UniProt P35590); experiment: Tie1 phosphorylation assay in HDMVECs; assay type: cell-based
Procedure: COS1 cells were transfected with pcDNA3-Tie1-V5. After 24 h of transfection, the cells were serum starved for 8 h and then treated with E3 IgG. For the Tie1 phosphorylation assay, HDMVECs were cultured on 10 cm dishes to near confluence, starved (8-16 h) in serum free medium and stimulated as indicated. After the stimulations, the cells were lysed in lysis buffer (RIPA-DOC: 50 mM Tris-HCl pH 8.0, 150 mM NaCl, 1% Triton-X-100, 0.1% SDS, 0.5% DOC, 10 mM EDTA, supplemented with aprotinin, leupeptin, PMSF and sodium vanadate). Clarified lysates from transfected COS1 cells or HDMVECs were immunoprecipitated with anti-V5 or anti-Tie1 B9, respectively. Proteins were separated by SDS-PAGE, transferred to nitrocellulose and immunoblotted using the anti-phosphotyrosine and anti-Tie1 (R&D systems) antibodies.
To test if the E3 IgG binding to the extracellular region of Tie1 induces autophosphorylation of Tie1, the Tie1 receptor phosphorylation level in response to E3 IgG treatment was studied in transiently transfected COS1 cells and human primary endothelial cells. COS1 cells were transfected with an expression vector containing a V5-tagged full length Tie1 cDNA, and, after serum starvation, the cells were treated with E3 IgG (200 ng/ml). Cell lysates were extracted at several time points and Tie1 was immunoprecipitated with anti-V5 followed by western blotting using anti-phosphotyrosine and anti-Tie1 antibodies. […] To determine if E3 IgG induces Tie1 phosphorylation in primary endothelial cells, HDMVEC cells were serum starved and stimulated with several concentrations of E3 for 60 min. […] Also higher concentrations of E3 (500-1000 ng/ml) induced Tie1 phosphorylation but the response was more rapid and was most prominent after 5 min of stimulation.
To study the kinetics of E3 IgG induced Tie1 activation, cells were stimulated with E3 IgG (200 ng/ml) and receptor phosphorylation was studied at various time points. Tie1 phosphorylation was highest 15-30 min after E3 IgG treatment but phosphorylation persisted for up to 1 h.

[2] = molecular target: T2, mouse Tie1 (Mus musculus, UniProt Q06806); experiment: Flow cytometry binding to mouse endothelial cell lines; conditions: MS1, Le-2, Bend3, SVEC and Tie-1 transfected Le-2 cells; biotinylated antibody
T2 construct: host or cells: mouse endothelial cell lines MS1, Le-2, Bend3, SVEC
T2 sequence (Q06806 23-1134): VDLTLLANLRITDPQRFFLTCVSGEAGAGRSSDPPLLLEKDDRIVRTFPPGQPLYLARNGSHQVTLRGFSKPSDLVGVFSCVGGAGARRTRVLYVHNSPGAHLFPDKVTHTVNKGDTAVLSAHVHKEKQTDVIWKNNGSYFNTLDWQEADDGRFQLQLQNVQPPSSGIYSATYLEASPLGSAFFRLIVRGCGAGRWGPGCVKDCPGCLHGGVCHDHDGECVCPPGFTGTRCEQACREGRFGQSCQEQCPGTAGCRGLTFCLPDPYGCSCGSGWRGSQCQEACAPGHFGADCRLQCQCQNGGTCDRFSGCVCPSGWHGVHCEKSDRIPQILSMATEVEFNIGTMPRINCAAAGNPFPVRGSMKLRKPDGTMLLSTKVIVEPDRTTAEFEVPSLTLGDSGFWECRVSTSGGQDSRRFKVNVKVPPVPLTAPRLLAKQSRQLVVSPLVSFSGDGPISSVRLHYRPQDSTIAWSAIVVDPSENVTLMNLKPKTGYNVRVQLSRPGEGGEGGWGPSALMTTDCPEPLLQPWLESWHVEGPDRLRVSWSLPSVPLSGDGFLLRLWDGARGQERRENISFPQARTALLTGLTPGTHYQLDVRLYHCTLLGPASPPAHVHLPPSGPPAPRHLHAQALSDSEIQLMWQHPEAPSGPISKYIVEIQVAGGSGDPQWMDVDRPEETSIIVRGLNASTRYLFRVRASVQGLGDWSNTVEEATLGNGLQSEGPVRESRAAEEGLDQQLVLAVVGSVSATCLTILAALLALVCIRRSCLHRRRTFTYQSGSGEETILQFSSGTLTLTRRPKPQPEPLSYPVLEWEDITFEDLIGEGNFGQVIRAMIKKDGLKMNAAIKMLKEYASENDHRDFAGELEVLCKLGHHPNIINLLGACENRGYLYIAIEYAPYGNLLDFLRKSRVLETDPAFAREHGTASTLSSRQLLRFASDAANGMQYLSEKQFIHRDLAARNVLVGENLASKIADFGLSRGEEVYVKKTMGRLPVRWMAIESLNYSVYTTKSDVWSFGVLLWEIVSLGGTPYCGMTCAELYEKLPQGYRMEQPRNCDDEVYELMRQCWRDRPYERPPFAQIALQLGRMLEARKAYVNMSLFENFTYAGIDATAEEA
Procedure: Specific binding of the Tie-1 antibodies and of control Mabs to mouse endothelial cells was measured by flow cytometry analysis (FACSscan, Becton Dickinson, Oxnard, Epics, Coulter). Mouse endothelial cell lines MS1, Le-2, Bend3, SVEC (ATCC, Rockville) and Tie-1 transfected Le-2 cells were stained. Cell staining was modified from existing protocols. About 200,000 cells were used in each experiment: after trypsinization, cells were washed one time in PBS and resuspended PBS, 10% Heat inactivated human serum (incubation buffer). To test specificity, antibodies were incubated at different dilutions for 1 h at room temperature. Cells were spun down by centrifugation for 3 min at 611 g. Between incubations cells were washed twice with PBS. […] After the final incubation step bound antibodies were detected by means of flow cytometry on a FACSCan and Epics Altra (Becton Dickinson, Oxnard, Coulter) and results analyzed.
Intracellular Tie-1 was measured as described above, except for the addition of Saponin to the incubation buffer to a final concentration of 0.1% during incubations. […] The binding pattern in mouse cell lines detected by flow cytometry is different from the binding pattern in HUVEC in that in mouse cells there is a greater cell surface staining than that compared to primary human endothelial cell lines.

[3] = molecular target: T1, Tie1; experiment: Immunohistochemistry of matched human tumor and normal tissue sections; design: from tissue; host or cells: fresh frozen normal and tumor tissue (e.g. lung, kidney, skin, breast); conditions: fresh frozen tissue
Procedure: The Tie-1 antibodies were biotinylated using the EZ-link Sulfo-NHS-SS-Biotin (Pierce, Cat. 21331). For Tie-1/Fc and Tie-1-His, the reaction was performed for 2 hours on ice in 50 mM sodium carbonate buffer, pH 9.6, in the presence of a 5-fold molar excess of biotinylating agent. For the antibodies, the reaction was performed for 2 hours on ice in PBS, in the presence of a 15-fold molar excess of EZ-link Sulfo-NHS-SS-Biotin. The reaction was stopped by the addition of Tris-HCl, pH 7.5 (50 mM final concentration) followed by a 1-hour incubation on ice. Samples were then dialyzed against PBS.
Various normal and tumor tissue sections were stained with biotinylated antibodies. A mouse monoclonal anti-Tie1 antibody (7e8) (Alitalo laboratory, University of Helsinki) was used as a positive control. Sections without primary antibody served as negative control. All samples were fresh frozen tissues and staining was performed with the TSA-kit (Perkin-Elmer Life Sciences). After acetone fixation (10-20 min, −20° C.) the slides were treated with 0.73% H2O2 for 10 min to reduce endogenous peroxidase activity followed by blocking for 30 min with TNB buffer. Sections ([…] thick) were incubated with primary antibodies (10 μg/ml) overnight at 4° C. Sections with the mouse monoclonal anti-tie1 antibody (7e8) were treated with biotinylated anti-mouse antibodies (VectaStain) before the addition of streptavidin-HRP. Signal was amplified by using a TSA kit and the visualized by AEC (235 ml NaAc, 15 ml AEC (stock solution: 1600 mg 3-amino-9-ethyl-carbazole and 480 ml N-dimethylformamide), 250 μl H2O2).

T1 sequence (P35590 22-1138): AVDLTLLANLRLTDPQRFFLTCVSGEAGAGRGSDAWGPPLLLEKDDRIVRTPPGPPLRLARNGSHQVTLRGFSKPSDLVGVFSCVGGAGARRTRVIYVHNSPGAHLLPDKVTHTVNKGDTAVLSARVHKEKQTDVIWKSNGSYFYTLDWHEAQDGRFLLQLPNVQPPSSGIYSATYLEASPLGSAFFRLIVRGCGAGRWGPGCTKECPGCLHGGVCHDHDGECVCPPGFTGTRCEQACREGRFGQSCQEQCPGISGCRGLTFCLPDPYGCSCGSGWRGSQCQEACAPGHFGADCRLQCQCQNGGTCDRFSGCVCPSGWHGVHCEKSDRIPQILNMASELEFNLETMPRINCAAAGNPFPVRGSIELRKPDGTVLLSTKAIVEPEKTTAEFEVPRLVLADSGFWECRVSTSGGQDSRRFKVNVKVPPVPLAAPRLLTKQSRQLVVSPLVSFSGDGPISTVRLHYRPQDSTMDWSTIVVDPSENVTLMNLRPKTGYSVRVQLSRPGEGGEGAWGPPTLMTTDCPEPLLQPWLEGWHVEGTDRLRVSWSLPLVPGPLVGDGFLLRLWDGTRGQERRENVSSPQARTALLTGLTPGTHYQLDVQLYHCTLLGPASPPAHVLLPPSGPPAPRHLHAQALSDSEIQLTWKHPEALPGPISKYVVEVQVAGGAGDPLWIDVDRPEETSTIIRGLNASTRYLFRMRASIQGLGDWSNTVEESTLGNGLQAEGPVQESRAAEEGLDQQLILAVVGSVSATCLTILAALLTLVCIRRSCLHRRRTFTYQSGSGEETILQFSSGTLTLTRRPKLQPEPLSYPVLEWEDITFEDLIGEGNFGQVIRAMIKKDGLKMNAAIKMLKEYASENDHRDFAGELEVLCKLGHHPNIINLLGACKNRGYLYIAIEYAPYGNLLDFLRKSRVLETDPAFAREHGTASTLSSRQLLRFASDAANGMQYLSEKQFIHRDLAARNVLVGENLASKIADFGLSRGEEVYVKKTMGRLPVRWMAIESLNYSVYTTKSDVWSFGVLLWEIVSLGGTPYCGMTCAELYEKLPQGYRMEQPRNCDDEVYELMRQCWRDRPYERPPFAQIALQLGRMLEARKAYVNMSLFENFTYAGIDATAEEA

B1: E3: human anti-Tie1 antibody from Fab phage library; HC SEQ ID NO:114, LC SEQ ID NO:116 (antibody, V domains shown)
VH: EVQLLESGGGLVQPGGSLRLSCAASGFTFSMYGMVWVRQAPGKGLEWVSVISPSGGNTGYADSVKGRFTISRDNSKNTLYLQVNSLRAEDTAVYYCARAPRGYSYGYYYWGQGTLVTVSSASTKGPSVFPLAPSSKSTSGG
VL: DIQMTQSPLSLSASVGDRVTITCRASQGIGHYLAWYQQKPGKVPKLLIYTASTLQSGVPSRFSGSGSGTDFTLTINSLQPEDVATYYCQQFNSYPHTFGQGTRLDIK
modifications: Synthetically generated peptide
- persistence of Tie1 phosphorylation ([1]; E3 IgG 200 ng/ml): up to 1 h
- time of highest Tie1 phosphorylation ([1]; E3 IgG 200 ng/ml): 15 to 30 min
- time of most prominent Tie1 phosphorylation ([1]; HDMVEC, E3 500-1000 ng/ml): 5 min
- concentration showing Tie1 receptor phosphorylation ([1]; HDMVEC, serum starved, stimulated 60 min): 50 to 200 ng/mL
- higher concentrations inducing Tie1 phosphorylation ([1]; HDMVEC, response more rapid): 500 to 1000 ng/mL
- binding to mouse endothelial cell lines [2]: binds to mouse endothelial cell lines
- staining of breast carcinoma ([3]; 10 μg/ml): stained also other structures in addition to vessels
- staining of hypernephroma tissue ([3]; 10 μg/ml): clear staining
- staining of kidney ([3]; 10 μg/ml): stained kidney tubules in addition to the vessels
- staining of lung carcinoma ([3]; 10 μg/ml): stained structures other than vessels
- staining of melanoma tissue ([3]; 10 μg/ml): also stained other surrounding structures
- staining of normal lung (large veins) ([3]; 10 μg/ml): stained especially clearly the large veins
- staining of normal skin ([3]; 10 μg/ml): stained blood vessels very faintly
- staining of veins and capillaries of mammary tissue (breast) ([3]; 10 μg/ml): brightest staining
- staining of vessels in normal tissues (tissue specificity) ([3]; biotinylated IgG 10 μg/ml): stained vessels in the lung and kidney but not in the skin
